Test results: article doi:10.1101/2021.12.16.472884

Legend:
Test in all cases: SEC
[1] = molecular target: His6 tagged recombinant pNL4-3-derived IN R262A/R263A/D256N/D270N (HIV-1 (NL4-3))
[2] = molecular target: His6 tagged recombinant pNL4-3-derived IN R262A/R263A/D256R (HIV-1 (NL4-3))
[3] = molecular target: His6 tagged recombinant pNL4-3-derived IN R269A/K273A/D256N/D270N (HIV-1 (NL4-3))
[4] = molecular target: His6 tagged recombinant pNL4-3-derived IN R269A/K273A/D256R (HIV-1 (NL4-3))

His6 tagged recombinant pNL4-3-derived IN R262A/R263A/D256N/D270N (enzyme)
stoichiometry N [1]: 4

His6 tagged recombinant pNL4-3-derived IN R262A/R263A/D256R (enzyme)
stoichiometry N [2]: 4

His6 tagged recombinant pNL4-3-derived IN R269A/K273A/D256N/D270N (enzyme)
stoichiometry N [3]: 4

His6 tagged recombinant pNL4-3-derived IN R269A/K273A/D256R (enzyme)
stoichiometry N [4]: 4
